According to article PMC3358304:

Assay: immunoblot of total Akt, MCF-7
Settings: glycan lost; control: wild type

Substance | expression_or_secretion
Akt (AKT1): T312Y | no change
Akt (AKT1): T305Y | no change
